In patent US20230060388A1 (SHANGHAI HENLIUS BIOTECH, published 2023):
Where a chain is given by its changes, count along the chain named. Names and notes keep the numbering of the source. Blank lines part the entries; values can stand above or below the binder they belong to.

Legend:
[1] = biological target: T1, human TIGIT expressed on cells (stably transfected Jurkat cells) (human, UniProt Q495A1 22-244); assay: flow cytometry on h-TIGIT transfected Jurkat cells, anti-human IgG Fc Alexa Fluor 488
T1 construct: Also used here for TIGIT on primary T cells in the MLR; also called h-TIGIT; T cell immunoreceptor with Ig and ITIM domains
T1 sequence: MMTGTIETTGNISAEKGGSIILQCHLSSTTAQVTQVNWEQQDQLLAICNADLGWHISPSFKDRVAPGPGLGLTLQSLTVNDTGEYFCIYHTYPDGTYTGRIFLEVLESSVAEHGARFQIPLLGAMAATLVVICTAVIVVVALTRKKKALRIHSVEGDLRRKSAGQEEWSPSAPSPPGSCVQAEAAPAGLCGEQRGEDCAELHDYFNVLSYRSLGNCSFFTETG
From the text: FIGS. 1A-1C depict whole cell binding of representative VHH bivalent antibodies to human TIGIT determined by flowcytometry assays. […] Y axis represents Mean Fluorescence Intensity of AlexaFlour 488. X axis represents antibody concentrations in nanomolar. 2B7, 1G1, 1C12, 3G6, 2B10, 3G7, 3G10, 13H11, and 15A5 are VHH clones of anti-human TIGIT. FIG. 1C is a schematic of the structure of a TIGIT VHH bivalent antibody.
Binding affinities of the bivalent clones to human TIGIT transfected Jurkat cells were confirmed by flowcytometry assays. Jurkat cells stably expressing human TIGIT and NFAT reporter gene were established. Specifically, Jurkat cells were transfected with human TIGIT expression vector by electroporation, and cells stably expressing human TIGIT were selected by 1 μg/ml puromycin during cell culture. Representative antibody clones were incubated at different concentrations with h-TIGIT stably expressing Jurkat cells (0.2×10^6/ml) in 100 μl/well in 96-well plate in FACS buffer (PBS with 1.5% FBS) for 30 min. After washing, Alexaflour 488 conjugated anti-human IgG Fc secondary antibody (Alexa Fluor® 488 AffiniPure Goat Anti-Human IgG, Fcγ fragment specific, Jackson labs, 1:500 dilution) was added and incubated for 30 min. After washing, mean fluorescence intensity was measured using CytoFlex (Beckman Coulter) by gating live cell population. Binding affinity was calculated using GraphPad Prism.

[2] = biological target: T2, recombinant human TIGIT extracellular domain (ECD) (human, UniProt Q495A1 22-138); assay: blocking ELISA, competitor PVR
T2 construct: also called h-TIGIT ECD; recombinant human TIGIT ECD
T2 sequence: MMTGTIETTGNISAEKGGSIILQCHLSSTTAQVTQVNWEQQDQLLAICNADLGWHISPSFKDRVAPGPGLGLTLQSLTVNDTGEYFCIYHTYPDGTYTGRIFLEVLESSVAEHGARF
Procedure: The effects of VHH antibody clones on blocking Poliovirus Receptor (PVR, a.k.a. CD155) binding to TIGIT were also determined using blocking ELISA assay.

[3] = biological target: T2, recombinant human TIGIT extracellular …; assay: ELISA on h-TIGIT ECD with VHH samples heated for 60 min at 25 to 70 °C
Procedure: (§1) FIGS. 6A and 6B depict thermostability tested for representative clones. The VHH antibody samples were heated from 25 to 70° C. for 60 min. Binding of heated samples to human TIGIT was examined using ELISA or whole cell binding. […] Y axis represents OD450 obtained from the ELISA assay. X axis represents temperature for the treatment. […] Y axis represents percentage of binding to h-TIGIT. X axis represents temperature for the treatment.
(§2) The thermostability of 12 representative clones was tested by heat treatment at 25 to 70° C. for 60 min, then the binding of the treated samples to human TIGIT was examined using ELISA and whole cell binding flow cytometry assays, the results of which are shown in FIGS. 6A and 6B. […] Bivalent 2A3 antibody (2A3-Fc) was constructed using human IgG1 CH2 and CH3 domains. The antibody was expressed in ExpiCHO cells and purified by protein A column. Epitope of 2A3-Fc binding to human TIGIT was studied using Octet binding assay in comparison with anti-TIGIT reference antibodies Reference Ab 1 and References Ab 2 (a reference anti-human-TIGIT antibody having the same amino acid sequences of Tiragolumab, which was synthesized in-house based on the disclosed sequences in U.S. 2017/0088613 A1). As shown in FIGS. 7A-7C, 2A3 clone bound to a different epitope compared to Reference Ab 1 and Reference Ab 2.

[4] = biological target: T1, human TIGIT expressed on cells (stably …); assay: flow cytometry on h-TIGIT Jurkat cells (% binding) with VHH samples heated for 60 min at 25 to 70 °C
Procedure: as §1, §2

[5] = biological target: T1, human TIGIT expressed on cells (stably …); assay: whole cell binding, flow cytometry
[6] = biological target: T3, recombinant ECD of human FcγRIIB (human, UniProt P31994 43-217); assay: Octet (ForteBio), receptor ECD loaded on the sensor, antibody at 5 concentrations (not given) [h-FcγRIIB binding]
T3 construct: extracellular domain
T3 sequence (looked up): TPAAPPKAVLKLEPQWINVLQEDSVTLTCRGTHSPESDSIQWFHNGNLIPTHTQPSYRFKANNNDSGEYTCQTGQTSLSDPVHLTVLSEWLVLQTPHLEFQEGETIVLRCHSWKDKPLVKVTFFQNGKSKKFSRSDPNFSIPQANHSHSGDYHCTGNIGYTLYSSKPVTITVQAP
From the text: (§3) FIG. 12 depicts binding of 2A3-LT-Fc wild type (wt) and Fc mutations (DLE and VLPLL) to human FcγRIIIA, human FcγRIIB and mouse FcγRIV determined using Octet binding assay. Sensors were loaded with recombinant proteins of ECDs of FcγRIIIA, human FcγRIIB and mouse FcγRIV, association and dissociation of 2A3-LT-Fc wt, DLE or VLPLL mutants at 5 different concentrations were detected using ForteBio. Y axis represents association, dissociation & Rmax. X axis represents time in second. Both DLE and VLPLL mutants had enhanced binding affinity to human FcγRIIIA compared to that of wild type, DLE mutant also had enhanced binding affinity to human FcγRIIB, however VLPLL mutant reduced binding affinity to human FcγRIIB All versions had similar affinity to mouse FcγRIV.

[7] = biological target: T4, recombinant ECD of mouse FcγRIV (mouse, UniProt A0A0B4J1G0 21-203); assay: Octet (ForteBio), receptor ECD loaded on the sensor, antibody at 5 concentrations (not given) [m- FcγRIV binding]
T4 sequence: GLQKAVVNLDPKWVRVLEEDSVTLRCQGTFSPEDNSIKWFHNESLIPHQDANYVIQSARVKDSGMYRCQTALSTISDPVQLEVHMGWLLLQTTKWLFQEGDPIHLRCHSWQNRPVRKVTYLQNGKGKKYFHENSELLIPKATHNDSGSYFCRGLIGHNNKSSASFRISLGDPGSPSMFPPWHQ
From the text: as §3

[8] = biological target: T1, human TIGIT expressed on cells (stably …); assay: cell-based or functional assay
[9] = biological target: human FcγRIIIA expressed on transfected Jurkat cells (human, UniProt P08637 17-254); assay: cell-based or functional assay
Sequence of human FcγRIIIA expressed on transfected Jurkat cells (P08637 17-254): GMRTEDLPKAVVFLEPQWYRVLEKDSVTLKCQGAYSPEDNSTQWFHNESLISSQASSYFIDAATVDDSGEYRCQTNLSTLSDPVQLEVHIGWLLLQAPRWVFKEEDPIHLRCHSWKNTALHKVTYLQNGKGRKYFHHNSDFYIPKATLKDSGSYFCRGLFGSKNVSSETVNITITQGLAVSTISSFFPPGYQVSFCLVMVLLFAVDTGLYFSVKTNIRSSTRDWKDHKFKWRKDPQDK

B1: 3G6 bivalent VHH antibody (Fc fusion, not shown: small tags and cut ends)
chain: QVQLVESGGGLVQAGGSLSLSCAASGSIFGISVMGWYRQAPGEQRDLVATLTRAGLTTYGDSVKGRFSISRDSAKNTVYLQMNNLKPEDTAVYYCHANIMESAASTFGRYWGQGTQVTVSS
EC50 (read off the curve) [1]: ~0.8 nM

B2: 3G6 VHH (VHH)
VHH: B1 chain
notes: VHH in E. coli supernatant
inhibition of PVR binding to h-TIGIT [2]: > 90%

B4: 3F10 VHH (VHH)
VHH: QVQLVESGGGLVQAGGSLRLSCASSEHTFSNFPMGWFRQAPGKERNVVAAIDSSGRLTYYADSVKGRFTISKDNAKSTVYLQMNSLKSEDTARYYCAARTGGVGYYSRSSFYNYWGQGTLVTVSS
notes: VHH in E. coli supernatant
inhibition of PVR binding to h-TIGIT [2]: > 90%

B5: 1A8 VHH (VHH)
VHH: QVQLVESGGGVVQPGRSLRLSCAASGPSFSSYPMGWFRQAPGKERESVAAISSRGRFTYYADSVKGRFTISRDNSKNTLYLQMNSLRAEDTAVYYCAARDSGSGYYSRAQWYDYWGQGTLVTVSS
binding result [3]: binds
binding result [4]: binds

B10: 6F12 VHH (VHH)
VHH: B5 VHH with S30T, R54D, T58K, R99E
binding result [3]: binds
binding result [4]: binds

B11: 2B10 VHH (VHH)
VHH: QVKLEESGGGLVQTGDSLRLSCAASSRIFRRYAMGWFRQAPGKEREFVAAITWSGASTTYTDSVKGRFTISRDSAENTTYLQMTSLRPEDTAVYYCAADPWGSVIVGTAEYEYWGQGTLVTVSS
notes: VHH in E. coli supernatant
inhibition of PVR binding to h-TIGIT [2]: > 90%

B12: 1C12 VHH (VHH)
VHH: QVQLVESGGGLVQTGDSLRLSCAASSRIFSRYGMGWFRQAPGKEREFVAAISWNGASTTYTDSVKGRFTISRDSAENTTYLQINSLRPEDTAVYYCAADPWGAVKLGTAEYEYWGQGTQVTVSS
notes: VHH in E. coli supernatant
inhibition of PVR binding to h-TIGIT [2]: > 90%

B13: 15A5 bivalent VHH antibody (Fc fusion, not shown: small tags and cut ends)
chain: QVQLVESGGGLVQAGGSLRLSCAASERTFSSFAMGWFRQAPGKEREVVAAIDPSGRYIYYKDSVKGRFTMSRDNAKSTVYLQMNSLKPDDTARYYCAARIRGEGYYTRSSFYHYWGQGTQVTVSS
EC50 (read off the curve) [1]: ~0.06 nM

B14: 15A5 VHH (VHH)
VHH: B13 chain
notes: VHH in E. coli supernatant
inhibition of PVR binding to h-TIGIT [2]: > 90%

B15: 2A3-LT-Fc VLPLL (Fc mutations L235V, F243L, R292P, Y300L, P396L) (Fc fusion)
chain: QVQLVESGGGVVQPGRSLRLSCAASGGSFSSYPMGWFRQAPGKERESVAAISSDLRFTYYADSVKGRFTISRDNSKNTLYLQMNSLRAEDTAVYYCAARTSGVGYYSRAQWYDYWGQGTLVTVSSEPKSCDKTHTCPPCPAPELVGGPSVFLLPPKPKDTLMISRTPEVTCVVVDVSHEDPEVKFNWYVDGVEVHNAKTKPPEEQYNSTLRVVSVLTVLHQDWLNGKEYKCKVSNKALPAPIEKTISKAKGQPREPQVYTLPPSREEMTKNQVSLTCLVKGFYPSDIAVEWESNGQPENNYKTTPLVLDSDGSFFLYSKLTVDKSRWQQGNVFSCSVMHEALHNHYTQKSLSLSPGK
notes: also called VLPLL mutant; VPVLL (as misprinted)
binding result [6]: binds
binding result [7]: binds

Now from value to binder:

EC50 (read off the curve) [1]: ~0.2 nM
B3: 13H11 bivalent VHH antibody (Fc fusion, not shown: small tags and cut ends)
chain: QVQLVESGGGLVQAGGSLRLSCAASGLTFSMYAMGWFRQGPGKERESVAAISSDGRFTYYAASVKGRFTISKDNAKSAAFLQMNSLKPEDTAVYYCAARDSGSGYYSRAQWYDYWGQGTQVTVSS

binding result [5]: binds
B6: 2A3 ML_DE (hotspot modified 2A3) (VHH)
VHH: B5 VHH with P27G, R54D, G55L, D100E, S103V

binding result [5]: binds
B7: 2A3 ML (hotspot modified 2A3) (VHH)
VHH: B5 VHH with P27G, R54D, G55L, S103V

binding result [5]: binds
B8: 2A3 MI (hotspot modified 2A3) (VHH)
VHH: B5 VHH with P27G, R54D, G55I, S103V

binding result [3]: binds
binding result [4]: binds
B9: 7F6 VHH (VHH)
VHH: B5 VHH with S28M, R54D, G55P

EC50 (nM), TIGIT blockade NFAT reporter, Average [8]: 0.97 nM
EC50 (nM), TIGIT blockade NFAT reporter, Exp 1 [8]: 0.67 nM
EC50 (nM), TIGIT blockade NFAT reporter, Exp 2 [8]: 0.92 nM
EC50 (nM), TIGIT blockade NFAT reporter, Exp 3 [8]: 1.32 nM
EC50 (nM), FcγRIIIA-mediated NFAT reporter, Average [9]: 0.024 nM
EC50 (nM), FcγRIIIA-mediated NFAT reporter, Exp 1 [9]: 0.027 nM
EC50 (nM), FcγRIIIA-mediated NFAT reporter, Exp 2 [9]: 0.0295 nM
EC50 (nM), FcγRIIIA-mediated NFAT reporter, Exp 3 [9]: 0.018 nM
EC50 (nM), FcγRIIIA-mediated NFAT reporter, Exp 4 [9]: 0.02 nM
binding result [6]: binds
binding result [7]: binds
B16: 2A3-LT-Fc-DLE (Fc mutations S239D, A330L, I332E) (Fc fusion)
chain: B15 chain with V145L, S149D, L153F, P202R, L210Y, A240L, I242E, L306P
notes: I332E is printed as 1332E; also called DLE mutant
